pKd: −log10 of the molar value.
Assays:
[1] = target: RSV F DS-Cav1 with a thrombin cleavage site between RSV F and the foldon, before cleavage (respiratory syncytial virus | bacteriophage T4) (UniProt P03420); test: SEC; S200 size-exclusion chromatography of purified RSV F variants, before or after removal of the foldon with thrombin; PBS
[2] = target: RSV F DS-Cav1 with C-terminal T4 fibritin foldon (respiratory syncytial virus | bacteriophage T4) (UniProt P03420); test: as above
[3] = target: DS-Cav1, 505-… (design without foldon) (respiratory syncytial virus) (UniProt P03420); test: ELISA; D25 ELISA on 293T transient expression culture supernatants, 96-well microtiter plate format
[4] = target: DS-Cav1 1-C, foldon removed (respiratory syncytial virus) (UniProt P03420); test: BLI; fortéBio Octet Red384; RSV F variant captured on motavizumab IgG loaded on anti-human Fc probes; Fab in solution 0.007 to 0.5 μM; 30°C; PBS + 1% BSA; 1:1 fit

Substance: RSV F DS-Cav1 with a thrombin cleavage site between RSV F and the foldon, before cleavage (from UniProt P03420 26-109; P03420 137-511) (domain or fragment)
- stoichiometry N [1]: 3

Substance: RSV F DS-Cav1 with C-terminal T4 fibritin foldon (from UniProt P03420 26-109; P03420 137-511) (domain or fragment)
- stoichiometry N [2]: 3

Substance: D25 antibody as used in the ELISA
- D25 ELISA binding titer (OD) [3]: > 2 OD

Substance: D25 antigen binding fragment (Fab)
- pKd [4]: 9.49
